This note sets out measurements from article PMC13064845 (2025).

The experiment deals with thrombospondin-1 (TSP1), immobilised in the Biacore analysis (UniProt P35441 19-1170). Description: SPR. In general terms: SPR reads the build-up and loss of mass on a sensor chip optically.
Chain of thrombospondin-1 (TSP1), immobilised in the Biacore analysis (P35441 19-1170): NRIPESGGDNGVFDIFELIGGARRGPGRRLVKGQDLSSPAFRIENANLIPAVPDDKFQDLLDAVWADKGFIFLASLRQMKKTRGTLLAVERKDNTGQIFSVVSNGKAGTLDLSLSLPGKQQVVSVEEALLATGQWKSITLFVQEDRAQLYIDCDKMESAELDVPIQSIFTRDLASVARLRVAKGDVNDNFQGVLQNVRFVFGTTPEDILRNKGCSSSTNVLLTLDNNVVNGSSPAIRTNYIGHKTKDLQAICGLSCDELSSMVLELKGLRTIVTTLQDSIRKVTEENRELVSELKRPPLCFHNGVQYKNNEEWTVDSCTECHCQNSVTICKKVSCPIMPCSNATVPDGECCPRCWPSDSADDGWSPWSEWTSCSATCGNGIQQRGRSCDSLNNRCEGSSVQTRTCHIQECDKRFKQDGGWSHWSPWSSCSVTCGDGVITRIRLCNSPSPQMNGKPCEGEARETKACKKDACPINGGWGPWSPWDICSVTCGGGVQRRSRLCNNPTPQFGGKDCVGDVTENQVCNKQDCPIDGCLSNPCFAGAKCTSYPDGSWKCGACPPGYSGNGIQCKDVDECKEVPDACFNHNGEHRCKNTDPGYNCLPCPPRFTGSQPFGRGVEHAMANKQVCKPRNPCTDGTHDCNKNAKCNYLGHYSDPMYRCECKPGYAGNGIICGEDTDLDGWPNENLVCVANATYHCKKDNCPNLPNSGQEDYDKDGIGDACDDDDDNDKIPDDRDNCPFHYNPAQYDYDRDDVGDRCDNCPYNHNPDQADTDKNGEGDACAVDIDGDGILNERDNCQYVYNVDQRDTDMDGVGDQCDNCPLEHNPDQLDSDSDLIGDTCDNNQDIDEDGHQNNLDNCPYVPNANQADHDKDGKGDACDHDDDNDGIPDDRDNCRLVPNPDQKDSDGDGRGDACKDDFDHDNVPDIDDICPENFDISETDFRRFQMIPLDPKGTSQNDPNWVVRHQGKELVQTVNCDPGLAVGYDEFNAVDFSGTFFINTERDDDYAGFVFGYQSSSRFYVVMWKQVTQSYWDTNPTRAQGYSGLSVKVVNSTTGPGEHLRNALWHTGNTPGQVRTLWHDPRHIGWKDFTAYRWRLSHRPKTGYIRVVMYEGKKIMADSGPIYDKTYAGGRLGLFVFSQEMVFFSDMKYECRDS

B1: fibulin-7 (FBLN7), analyte of the Biacore analysis (natural protein)
chain: QSCLNKQQLLTTIRQLQQLLKGQETRFTEGIRNMKSRLAALQNTVNKMTPDAPPVSCPALEAPPDGKKFGSKYLVDHEVYFTCNPGFQLVGPSSVVCLANGSWTGEQPRCRDISECSSQPCHNGGTCVEGINHYRCICPPGKTGNRCQHQTQAAAPDGGEAGDPAFSRAPRCAQVEREQHCSCEAGFHLSSTTGGHSVCQDVNECEIYGQKGRPRLCMHACVNTPGSYRCTCPSGYRILADGKSCEDVDECAGPQHMCPRGTTCINTGGGFQCVNPECPEGSGNISYVKTSPFQCERNPCPMDSRPCRHLPKTISFHYLSLPSKLKTPITLFRMATASIPGHPGPNSLRFGIVGGNSRGHFVMQRSDRQTGELILTQTLEGPQTLEVDVDMSEYLERSFQANHVSKVTIFVSRYDF
In turn, B1 showed a dissociation constant (Kd) of 29.9 nM.

Broadly, the Kd is the concentration at which binding is half-saturated. Low values mean tighter binding, high ones weaker binding.
